Laboratory results published in the supplement of paper PMC11246515.
± gives the standard deviation of the averaged measurements.

Assay: total protein half-life in vivo (active degradation + dilution); higher = more stable protein
[1] = E. coli NCM3722 delta-clpP, growth: N-lim chemostat, doubling time 6 h
[2] = E. coli NCM3722 delta-hslV, growth: N-lim chemostat, doubling time 6 h
[3] = E. coli NCM3722 delta-lon, growth: N-lim chemostat, doubling time 6 h
[4] = E. coli NCM3722 delta-smpB, growth: N-lim chemostat, doubling time 6 h
[5] = wild type E. coli NCM3722, growth: C-lim chemostat, doubling time 3 h
[6] = wild type E. coli NCM3722, growth: C-lim chemostat, doubling time 6 h
[7] = wild type E. coli NCM3722, growth: N-lim chemostat, doubling time 6 h
[8] = wild type E. coli NCM3722, growth: N-lim chemostat, doubling time 12 h
[9] = wild type E. coli NCM3722, growth: P-lim chemostat, doubling time 6 h
[10] = wild type E. coli NCM3722, growth: P-lim chemostat, doubling time 12 h
[11] = E. coli NCM3722 delta-clpP delta-lon delta-hslV, growth: N-lim chemostat, doubling time 6 h
[12] = wild type E. coli NCM3722, growth: C-lim chemostat, doubling time 12 h

Sequence	total protein half-life in vivo [1]	total protein half-life in vivo [2]	total protein half-life in vivo [3]	total protein half-life in vivo [4]	total protein half-life in vivo [5]	total protein half-life in vivo [6]	total protein half-life in vivo [7]	total protein half-life in vivo [8]	total protein half-life in vivo [9]	total protein half-life in vivo [10]	total protein half-life in vivo [11]	total protein half-life in vivo [12]
MPLHNLTRFPRLEFIGAPTPLEYLPRFSDYLGREIFIKRDDVTPMAMGGNKLRKLEFLAADALREGADTLITAGAIQSNHVRQTAAVAAKLGLHCVALLENPIGTTAENYLTNGNRLLLDLFNTQIEMCDALTDPNAQLEELATRVEAQGFRPYVIPVGGSNALGALGYVESALEIAQQCEGAVNISSVVVASGSAGTHAGLAVGLEHLMPESELIGVTVSRSVADQLPKVVNLQQAIAKELELTASAEILLWDDYFAPGYGVPNDEGMEAVKLLARLEGILLDPVYTGKAMAGLIDGISQKRFKDEGPILFIHTGGAPALFAYHPHV	5.78 ± 0.85 h	5.5 ± 0.72 h	6.76 ± 0.46 h	5.72 ± 0.2 h	3.17 ± 0.16 h	5.52 ± 0.73 h	5.78 ± 0.087 h	11.6 ± 0.43 h	5.91 ± 0.16 h	12.259 ± 0.0094 h		
MNEQSQAKSPEALRAMVAGTLANFQHPTLKHNLTTLKALHHVAWMDDTLHVELVMPFVWHSAFEELKEQCSAELLRITGAKAIDWKLSHNIATLKRVKNQPGINGVKNIIAVSSGKGGVGKSSTAVNLALALAAEGAKVGILDADIYGPSIPTMLGAENQRPTSPDGTHMAPIMSHGLATNSIGYLVTDDNAMVWRGPMASKALMQMLQETLWPDLDYLVLDMPPGTGDIQLTLAQNIPVTGAVVVTTPQDIALIDAKKGIVMFEKVEVPVLGIVENMSVHICSNCGHHEPIFGTGGAEKLAEKYHTQLLGQMPLHISLREDLDKGTPTVISRPESEFTAIYRQLADRVAAQLYWQGEVIPGEISFRAV [P0AF08]	4.454 ± 0.02 h	3.96 ± 0.12 h	4.15 ± 0.34 h	3.876 ± 0.013 h	2.87 ± 0.2 h	5.22 ± 0.23 h	3.71 ± 0.21 h	5.9098 ± 0.00063 h	5.19 ± 0.43 h	9.96 ± 0.64 h	5.1 ± 1 h	9.46 ± 1.4 h
METNIVEVENFVQQSEERRGSAFTQEVKRYLERYPNTQYVDVLLTDLNGCFRGKRIPVSSLKKLEKGCYFPASVFAMDILGNVVEEAGLGQEMGEPDRTCVPVLGSLTPSAADPEFIGQMLLTMVDEDGAPFDVEPRNVLNRLWQQLRQRGLFPVVAVELEFYLLDRQRDAEGYLQPPCAPGTDDRNTQSQVYSVDNLNHFADVLNDIDELAQLQLIPADGAVAEASPGQFEINLYHTDNVLEACDDALALKRLVRLMAEKHKMHATFMAKPYEEHAGSGMHIHISMQNNRGENVLSDAEGEDSPLLKKMLAGMIDLMPSSMALLAPNVNSYRRFQPGMYVPTQASWGHNNRTVALRIPCGDRHNHRVEYRVAGADANPYLVMAAIFAGILHGLDNELPLQEEVEGNGLEQEGLPFPIRQSDALGEFIENDHLRRYLGERFCHVYHACKNDELLQFERLITETEIEWMLKNA	2.89 ± 0.19 h	0.535 ± 0.066 h		0.507 h	0.748 h	1.47 h					3.73 ± 1.2 h	0.976 h
MKKRIPTLLATMIATALYSQQGLAADLASQCMLGVPSYDRPLVQGDTNDLPVTINADHAKGDYPDDAVFTGSVDIMQGNSRLQADEVQLHQKEAPGQPEPVRTVDALGNVHYDDNQVILKGPKGWANLNTKDTNVWEGDYQMVGRQGRGKADLMKQRGENRYTILDNGSFTSCLPGSDTWSVVGSEIIHDREEQVAEIWNARFKVGPVPIFYSPYLQLPVGDKRRSGFLIPNAKYTTTNYFEFYLPYYWNIAPNMDATITPHYMHRRGNIMWENEFRYLSQAGAGLMELDYLPSDKVYEDEHPNDDSSRRWLFYWNHSGVMDQVWRFNVDYTKVSDPSYFNDFDNKYGSSTDGYATQKFSVGYAVQNFNATVSTKQFQVFSEQNTSSYSAEPQLDVNYYQNDVGPFDTRIYGQAVHFVNTRDDMPEATRVHLEPTINLPLSNNWGSINTEAKLLATHYQQTNLDWYNSRNTTKLDESVNRVMPQFKVDGKMVFERDMEMLAPGYTQTLEPRAQYLYVPYRDQSDIYNYDSSLLQSDYSGLFRDRTYGGLDRIASANQVTTGVTSRIYDDAAVERFNISVGQIYYFTESRTGDDNITWENDDKTGSLVWAGDTYWRISERWGLRGGIQYDTRLDNVATSNSSIEYRRDEDRLVQLNYRYASPEYIQATLPKYYSTAEQYKNGISQVGAVASWPIADRWSIVGAYYYDTNANKQADSMLGVQYSSCCYAIRVGYERKLNGWDNDKQHAVYDNAIGFNIELRGLSSNYGLGTQEMLRSNILPYQNTL	6.59 ± 0.56 h	6.39 ± 0.33 h	6.28 ± 0.42 h	6 ± 0.24 h	3.25 ± 0.27 h	6.269 ± 0.016 h	6.7 ± 0.21 h	13 ± 0.44 h	6.34 ± 0.59 h	13.5 ± 0.86 h	6.76 ± 0.85 h	13.3 ± 0.19 h
MNNDNTDYVSNESGTLSRLFKLPQHGTTVRTELIAGMTTFLTMVYIVFVNPQILGAAQMDPKVVFVTTCLIAGIGSIAMGIFANLPVALAPAMGLNAFFAFVVVGAMGISWQTGMGAIFWGAVGLFLLTLFRIRYWMISNIPLSLRIGITSGIGLFIALMGLKNTGVIVANKDTLVMIGDLSSHGVLLGILGFFIITVLSSRHFHAAVLVSIVVTSCCGLFFGDVHFSGVYSIPPDISGVIGEVDLSGALTLELAGIIFSFMLINLFDSSGTLIGVTDKAGLIDGNGKFPNMNKALYVDSVSSVAGAFIGTSSVTAYIESTSGVAVGGRTGLTAVVVGVMFLLVMFFSPLVAIVPPYATAGALIFVGVLMTSSLARVNWDDFTESVPAFITTVMMPFTFSITEGIALGFMSYCIMKVCTGRWRDLNLCVVVVAALFALKIILVD					3.27 h	5.84 h						
MHVKYLAGIVGAALLMAGCSSSNELSAAGQSVRIVDEQPGAECQLIGTATGKQSNWLSGQHGEEGGSMRGAANDLRNQAAAMGGNVIYGISSPSQGMLSSFVPTDSQIIGQVYKCPN [P0AF70]	6.18 ± 0.3 h	6.86 h	6.39 h		3.19 ± 0.049 h	5.95 ± 0.4 h	7.12 h	12.9 ± 0.69 h	6.01 ± 0.24 h	11.7 ± 0.94 h	6.05 h	10.7 ± 0.76 h
MKRVLTALAATLPFAANAADAISGAVERQPTNWQAIIMFLIFVVFTLGITYWASKRVRSRSDYYTAGGNITGFQNGLAIAGDYMSAASFLGISALVFTSGYDGLIYSLGFLVGWPIILFLIAERLRNLGRYTFADVASYRLKQGPIRILSACGSLVVVALYLIAQMVGAGKLIELLFGLNYHIAVVLVGVLMMMYVLFGGMLATTWVQIIKAVLLLFGASFMAFMVMKHVGFSFNNLFSEAMAVHPKGVDIMKPGGLVKDPISALSLGLGLMFGTAGLPHILMRFFTVSDAREARKSVFYATGFMGYFYILTFIIGFGAIMLVGANPEYKDAAGHLIGGNNMAAVHLANAVGGNLFLGFISAVAFATILAVVAGLTLAGASAVSHDLYANVFKKGATEREELRVSKITVLILGVIAIILGVLFENQNIAFMVGLAFAIAASCNFPIILLSMYWSKLTTRGAMMGGWLGLITAVVLMILGPTIWVQILGHEKAIFPYEYPALFSITVAFLGIWFFSATDNSAEGARERELFRAQFIRSQTGFGVEQGRAH					> 4 h	6.1 ± 0.31 h				8.62 h		12.9 ± 1.4 h
